Assay results from US8187838B2, “β-Galactoside-α2, 6-sialyltransferase, a gene encoding thereof, and a method for producing thereof” (Japan Tobacco Inc., priority 2006, dated 2012).
Entries after “also recorded” stand apart in the source; their conditions may differ.

Columns and labels:
Type in all cases: biochemical
[1] = Sialyltransferase activity of samples after each purification step; details: for Specific activity (U/mg) / Total activity (U): Bis-Tris pH 6, 5 minutes, 25° C.
Procedure: (§1) Sialyltransferase activity was measured as described in J. Biochem., 120, 104-110 (1996) (which is hereby incorporated by reference in its entirety). More specifically, the enzymatic reaction was accomplished by using CMP-NeuAc (70 nmol, containing about 20,000 cpm CMP-NeuAc in which NeuAc was labeled with ^14C; NeuAc represents N-acetylneuraminic acid) as a glycosyl donor substrate, lactose (1.25 μmol) as a glycosyl acceptor substrate, NaCl added to give a concentration of 0.5 M, and the enzyme-containing reaction solution (30 μl) prepared as described above. The enzymatic reaction was carried out at 25° C. for about 10 to 180 minutes. After completion of the reaction, 1.97 ml of 5 mM phosphate buffer (pH 6.8) was added to the reaction solution, which was then applied to a Dowex 1×8 (PO4^3− form, 0.2×2 cm, BIO-RAD) column. The radioactivity was measured for the reaction product, i.e., sialyllactose contained in the eluate (0 to 2 ml) from this column to calculate the enzyme activity. One enzyme unit (1 U) is defined as the amount of enzyme required to transfer 1 micromole of sialic acid per minute.
(§2) The enzyme activity was measured by the method reported in J. Biochem. 120, 104-110 (1996), in the same manner as described in Example 1 under conditions as indicated in the footnote of Table 3-1. For protein quantification, a Coomassie Protein Assay Reagent (PIERCE) was used according to the instruction manual attached thereto. One enzyme unit (1U) was defined as the amount of enzyme required to transfer 1 micromole of sialic acid per minute.
Reaction time: 5 minutes Reaction temperature: 25° C.
as §2, with “3-2.” for “3-1.”
(§3) Reaction Conditions Reaction composition:
Reaction time: 5 minutes Reaction temperature: 30° C.

[2] = Optimum pH, temperature and salt concentration for enzyme activity
Procedure: The purified enzyme prepared in Example 4-1 was used to examine the optimum pH, optimum temperature and optimum salt concentration for JT-ISH-224-derived recombinant β-galactoside-α2,6-sialyltransferase N1C0.
Acetate buffer (pH 4.0, pH 4.5 and pH 5.0), cacodylate buffer (pH 5.0, pH 5.5, pH 6.0, pH 6.5 and pH 7.0), phosphate buffer (pH 7.0, pH 7.5 and pH 8.0) and TAPS buffer (pH 8.0, pH 8.5 and pH 9.0) were prepared and used for enzyme activity measurement at 25° C. at various pH values.
The enzyme activity was measured at an interval of 5° C. starting from 10° C. up to 50° C. using cacodylate buffer (pH 5.0).
The enzyme activity was measured at 30° C. using cacodylate buffer (pH 5.0) by adjusting the NaCl concentration in the reaction solution to 0 M, 0.1 M, 0.25 M, 0.5 M, 0.75 M, 1.0 M, 1.5 M or 2.0 M.

[3] = Sialyltransferase activity in homogenate of E. coli carrying the JT-ISH-224 gene clones (14C-NeuAc transfer to lactose)
Procedure: as §1
An induction experiment of protein expression was performed on the five clones obtained in (3) above (i.e., ISH224-N0C0/pTrc, ISH224-N1C0/pTrc, ISH224-N2C0/pTrc, ISH224-N3C0/pTrc and ISH224-N3.1C0/pTrc). A single colony of E. coli TB1 having the expression vector pTrc99A carrying each clone was inoculated into LB medium (6 ml) containing an antibiotic, ampicillin (final concentration 100 μg/mL), and pre-cultured at 30° C. to about A600=0.5, followed by addition of IPTG (isopropyl-β-D(−)-thiogalactopyranoside, Wako Pure Chemical Industries, Ltd., Japan) at a final concentration of 1 mM. After culturing with shaking at 30° C. for an additional 4 hours, the cells in 4 ml culture solution were collected by centrifugation. These cells were suspended in 200 μl of 20 mM Bis-Tris buffer (pH 7.0) containing 0.336% Triton® X-100 and 0.5 M sodium chloride, and ultrasonically homogenized under ice cooling. The resulting homogenate was defined as a crude enzyme solution, diluted 200-fold with 20 mM cacodylate buffer (pH 5.0) containing 0.336% Triton® X-100, and then provided for activity measurement. The reaction was carried out in duplicate. The reaction conditions are as indicated in the footnotes of Tables 1-1 and 1-2.
as §3
Reaction time: 2 minutes Reaction temperature: 30° C.

[4] = after MONO Q (purified fraction)

B1: ISH224-N1C0 (protein, listed as Photobacterium sp.)
chain: MSEENTQSIIKNDINKTIIDEEYVNLEPINQSNISFTKHSWVQTCGTQQLLTEQNKESISLSVVAPRLDDDEKYCFDFNGVSNKGEKYITKVTLNVVAPSLEVYVDHASLPTLQQLMDIIKSEEENPTAQRYIAWGRIVPTDEQMKELNITSFALINNHTPADLVQEIVKQAQTKHRLNVKLSSNTAHSFDNLVPILKELNSFNNVTVTNIDLYDDGSAEYVNLYNWRDTLNKTDNLKIGKDYLEDVINGINEDTSNTGTSSVYNWQKLYPANYHFLRKDYLTLEPSLHELRDYIGDSLKQMQWDGFKKFNSKQQELFLSIVNFDKQKLQNEYNSSNLPNFVFTGTTVWAGNHEREYYAKQQINVINNAINESSPHYLGNSYDLFFKGHPGGGIINTLIMQNYPSMVDIPSKISFEVLMMTDMLPDAVAGIASSLYFTIPAEKIKFIVFTSTETITDRETALRSPLVQVMIKLGIVKEENVLFWADLPNCETGVCIAV
With B1 the “Specific activity (U/mg)” value ([1]; Crude enzyme solution) was 12.0 U/mg, the “Total activity (U)” value ([1]; Crude enzyme solution) was 13167 U and the “Specific activity (U/mg)” value ([1]; after Hydroxyapatite) was 68.3 U/mg. For the same molecule, the “Total activity (U)” value ([1]; after Hydroxyapatite) was 9448 U, the “Specific activity (U/mg)” value [1, 4] was 113 U/mg and the “Total activity (U)” value [1, 4] was 2720 U. For the same molecule, the “Specific activity (U/mg)” value ([1]; after Q SEPHAROSE) was 31.8 U/mg, the “Total activity (U)” value ([1]; after Q SEPHAROSE) was 11794 U and the “fold higher specific activity than Pasteurella multocida-derived β-galactoside-α2,3-sialyltransferase (60 U/mg)” value ([1]; purified fraction) was “about 1.9 fold”. For the same molecule, the “fold higher specific activity than β-galactoside-α2,6-sialyltransferase derived from Photobacterium damselae strain JT0160 (5.5 U/mg)” value ([1]; purified fraction) was “about 21 fold”, the “pH of maximum enzyme activity (optimum pH)” value ([2]; 25° C., acetate, cacodylate, phosphate, TAPS buffers pH 4.0-9.0) was 5.0 and the “temperature of maximum enzyme activity (optimum temperature)” value ([2]; cacodylate buffer (pH 5.0), 10° C. to 50° C.) was 30 °C. The “Radioactivity (cpm) Round 1” value ([3]; crude enzyme solution diluted 200-fold, lactose, 14C-CMP-sialic acid, 2 minutes, 30° C., Round 1) was 1552 cpm, the “Radioactivity (cpm) Round 2” value ([3]; crude enzyme solution diluted 200-fold, lactose, 14C-CMP-sialic acid, 2 minutes, 30° C., Round 2) was 1711 cpm and the “Radioactivity (cpm) Average” value ([3]; crude enzyme solution diluted 200-fold, lactose, 14C-CMP-sialic acid, 2 minutes, 30° C., average of duplicate) was 1631.5 cpm. The “sialyltransferase activity of the expressed clone (in words)” value ([3]; crude enzyme solution from E. coli TB1, listed as ISH224-N1C0/pTrc) was “expressed sialyltransferase; also recorded: retained the activity”.
